Tests used:
[1] = molecular target: T1, VWF-FP N1134C mutant (albumin-fused von Willebrand Factor) (human); assay: covalent-FVIII ELISA over FVIII antigen ELISA
T1 construct: Stably expressed in CHO cells with furin co-transfected; also called VWF-FP mutant N1134C; Cys residue at VWF aa position 1134; not shown: linker between VWF and albumin, made in analogy to WO 2009/156137

[2] = molecular target: T2, VWF-FP K1116C mutant (albumin-fused von Willebrand Factor) (human); assay: covalent-FVIII ELISA over FVIII antigen ELISA
T2 construct: Stably expressed in CHO cells with furin co-transfected; also called VWF-FP mutant K1116C; Cys residue at VWF aa position 1116; not shown: linker between VWF and albumin, made in analogy to WO 2009/156137

[3] = molecular target: T3, VWF-FP R768C mutant (albumin-fused von Willebrand Factor) (human); assay: covalent-FVIII ELISA over FVIII antigen ELISA
T3 construct: Stably expressed in CHO cells with furin co-transfected; also called VWF-FP mutant R768C; Cys residue at VWF aa position 768; not shown: linker between VWF and albumin, made in analogy to WO 2009/156137

[4] = molecular target: T4, VWF-FP E1015C mutant (albumin-fused von Willebrand Factor) (human); assay: covalent-FVIII ELISA over FVIII antigen ELISA
T4 construct: Stably expressed in CHO cells with furin co-transfected; also called VWF-FP mutant E1015C; Cys residue at VWF aa position 1015; not shown: linker between VWF and albumin, made in analogy to WO 2009/156137

[5] = molecular target: T5, VWF-FP H817C mutant (albumin-fused von Willebrand Factor) (human); assay: covalent-FVIII ELISA over FVIII antigen ELISA
T5 construct: Stably expressed in CHO cells with furin co-transfected; also called VWF-FP mutant H817C; Cys residue at VWF aa position 817; not shown: linker between VWF and albumin, made in analogy to WO 2009/156137

[6] = molecular target: T6, VWF-FP L984C mutant (albumin-fused von Willebrand Factor) (human); assay: covalent-FVIII ELISA over FVIII antigen ELISA
T6 construct: Stably expressed in CHO cells with furin co-transfected; also called VWF-FP mutant L984C; Cys residue at VWF aa position 984; not shown: linker between VWF and albumin, made in analogy to WO 2009/156137

[7] = molecular target: T1, VWF-FP N1134C mutant (albumin-fused von …); assay: covalent-FVIII ELISA over FVIII activity assay
[8] = molecular target: T2, VWF-FP K1116C mutant (albumin-fused von …); assay: covalent-FVIII ELISA over FVIII activity assay
[9] = molecular target: T3, VWF-FP R768C mutant (albumin-fused von …); assay: covalent-FVIII ELISA over FVIII activity assay
[10] = molecular target: T4, VWF-FP E1015C mutant (albumin-fused von …); assay: covalent-FVIII ELISA over FVIII activity assay
[11] = molecular target: T5, VWF-FP H817C mutant (albumin-fused von …); assay: covalent-FVIII ELISA over FVIII activity assay
[12] = molecular target: T6, VWF-FP L984C mutant (albumin-fused von …); assay: covalent-FVIII ELISA over FVIII activity assay
[13] = molecular target: T1, VWF-FP N1134C mutant (albumin-fused von …); assay: ELISA of co-expression supernatant: anti-VWF capture, 350 mM CaCl2 wash, anti-FVIII detection
Procedure: (§1) Cell culture supernatant samples (10 ml) from transient transfections were concentrated with Amicon Ultracell-30K (Millipore UFC903024; 3000 g centrifugation). FVIII covalently attached to VWF-FP in culture supernatant (concentrates) was determined by a standard ELISA. Briefly, microplates were incubated with 100 μL per well of the capture antibody (rabbit anti human VWF-IgG, Dako A0082 [Dako, Hamburg, Germany], diluted 1:2000 in buffer A [Sigma C3041, Sigma-Aldrich, Munich, Germany]) overnight at ambient temperature. After washing plates three times with buffer B (Sigma T9039), each well was incubated with 200 μL buffer C (Sigma T6789) for 1.5 hours at ambient temperature (blocking). After another three wash steps with buffer B, serial dilutions of the test sample in buffer B as well as serial dilutions of a control preparation of covalently linked FVIII-VWF-FP, (2.0-0.03 arbitrary U/ml in buffer B (we call these “arbitrary units” as they may not correspond to the standard FVIII units as determined using Standard Human Plasma); volumes per well: 100 μL) were incubated for 1.5 hours at ambient temperature. After three wash steps with buffer B, 200 μL of 350 mM CaCl₂ were added to each well and incubated for 1 hour at ambient temperature. CaCl₂ was removed (without washing) and additional 200 μl were added to each well and incubated further for 1 hour. After three wash steps with buffer B 100 μL of a 1:2 dilution in buffer B of the detection antibody (Detecting Antibody for FVIII:C, peroxidase labelled, Cedarlane CL20035K-D) were added to each well and incubated for 1 hour at ambient temperature. After three wash steps with buffer B, 100 μL of substrate solution (OUVF, Siemens Healthcare Diagnostics) were added per well and incubated for 15 minutes at ambient temperature in the dark. Addition of 100 μL undiluted stop dilution (OSFA, Siemens Healthcare Diagnostics) prepared the samples for reading in a suitable microplate reader at 450 nm wavelength. Concentrations of the test samples were then calculated using the standard curve with the control preparation.

[14] = molecular target: T2, VWF-FP K1116C mutant (albumin-fused von …); assay: as above
Procedure: as §1

[15] = molecular target: T3, VWF-FP R768C mutant (albumin-fused von …); assay: as above
Procedure: as §1

[16] = molecular target: T4, VWF-FP E1015C mutant (albumin-fused von …); assay: as above
Procedure: as §1

[17] = molecular target: T5, VWF-FP H817C mutant (albumin-fused von …); assay: as above
Procedure: as §1

[18] = molecular target: T6, VWF-FP L984C mutant (albumin-fused von …); assay: as above
Procedure: as §1

T4 sequence (chain, as listed by the source E1015C E1015C): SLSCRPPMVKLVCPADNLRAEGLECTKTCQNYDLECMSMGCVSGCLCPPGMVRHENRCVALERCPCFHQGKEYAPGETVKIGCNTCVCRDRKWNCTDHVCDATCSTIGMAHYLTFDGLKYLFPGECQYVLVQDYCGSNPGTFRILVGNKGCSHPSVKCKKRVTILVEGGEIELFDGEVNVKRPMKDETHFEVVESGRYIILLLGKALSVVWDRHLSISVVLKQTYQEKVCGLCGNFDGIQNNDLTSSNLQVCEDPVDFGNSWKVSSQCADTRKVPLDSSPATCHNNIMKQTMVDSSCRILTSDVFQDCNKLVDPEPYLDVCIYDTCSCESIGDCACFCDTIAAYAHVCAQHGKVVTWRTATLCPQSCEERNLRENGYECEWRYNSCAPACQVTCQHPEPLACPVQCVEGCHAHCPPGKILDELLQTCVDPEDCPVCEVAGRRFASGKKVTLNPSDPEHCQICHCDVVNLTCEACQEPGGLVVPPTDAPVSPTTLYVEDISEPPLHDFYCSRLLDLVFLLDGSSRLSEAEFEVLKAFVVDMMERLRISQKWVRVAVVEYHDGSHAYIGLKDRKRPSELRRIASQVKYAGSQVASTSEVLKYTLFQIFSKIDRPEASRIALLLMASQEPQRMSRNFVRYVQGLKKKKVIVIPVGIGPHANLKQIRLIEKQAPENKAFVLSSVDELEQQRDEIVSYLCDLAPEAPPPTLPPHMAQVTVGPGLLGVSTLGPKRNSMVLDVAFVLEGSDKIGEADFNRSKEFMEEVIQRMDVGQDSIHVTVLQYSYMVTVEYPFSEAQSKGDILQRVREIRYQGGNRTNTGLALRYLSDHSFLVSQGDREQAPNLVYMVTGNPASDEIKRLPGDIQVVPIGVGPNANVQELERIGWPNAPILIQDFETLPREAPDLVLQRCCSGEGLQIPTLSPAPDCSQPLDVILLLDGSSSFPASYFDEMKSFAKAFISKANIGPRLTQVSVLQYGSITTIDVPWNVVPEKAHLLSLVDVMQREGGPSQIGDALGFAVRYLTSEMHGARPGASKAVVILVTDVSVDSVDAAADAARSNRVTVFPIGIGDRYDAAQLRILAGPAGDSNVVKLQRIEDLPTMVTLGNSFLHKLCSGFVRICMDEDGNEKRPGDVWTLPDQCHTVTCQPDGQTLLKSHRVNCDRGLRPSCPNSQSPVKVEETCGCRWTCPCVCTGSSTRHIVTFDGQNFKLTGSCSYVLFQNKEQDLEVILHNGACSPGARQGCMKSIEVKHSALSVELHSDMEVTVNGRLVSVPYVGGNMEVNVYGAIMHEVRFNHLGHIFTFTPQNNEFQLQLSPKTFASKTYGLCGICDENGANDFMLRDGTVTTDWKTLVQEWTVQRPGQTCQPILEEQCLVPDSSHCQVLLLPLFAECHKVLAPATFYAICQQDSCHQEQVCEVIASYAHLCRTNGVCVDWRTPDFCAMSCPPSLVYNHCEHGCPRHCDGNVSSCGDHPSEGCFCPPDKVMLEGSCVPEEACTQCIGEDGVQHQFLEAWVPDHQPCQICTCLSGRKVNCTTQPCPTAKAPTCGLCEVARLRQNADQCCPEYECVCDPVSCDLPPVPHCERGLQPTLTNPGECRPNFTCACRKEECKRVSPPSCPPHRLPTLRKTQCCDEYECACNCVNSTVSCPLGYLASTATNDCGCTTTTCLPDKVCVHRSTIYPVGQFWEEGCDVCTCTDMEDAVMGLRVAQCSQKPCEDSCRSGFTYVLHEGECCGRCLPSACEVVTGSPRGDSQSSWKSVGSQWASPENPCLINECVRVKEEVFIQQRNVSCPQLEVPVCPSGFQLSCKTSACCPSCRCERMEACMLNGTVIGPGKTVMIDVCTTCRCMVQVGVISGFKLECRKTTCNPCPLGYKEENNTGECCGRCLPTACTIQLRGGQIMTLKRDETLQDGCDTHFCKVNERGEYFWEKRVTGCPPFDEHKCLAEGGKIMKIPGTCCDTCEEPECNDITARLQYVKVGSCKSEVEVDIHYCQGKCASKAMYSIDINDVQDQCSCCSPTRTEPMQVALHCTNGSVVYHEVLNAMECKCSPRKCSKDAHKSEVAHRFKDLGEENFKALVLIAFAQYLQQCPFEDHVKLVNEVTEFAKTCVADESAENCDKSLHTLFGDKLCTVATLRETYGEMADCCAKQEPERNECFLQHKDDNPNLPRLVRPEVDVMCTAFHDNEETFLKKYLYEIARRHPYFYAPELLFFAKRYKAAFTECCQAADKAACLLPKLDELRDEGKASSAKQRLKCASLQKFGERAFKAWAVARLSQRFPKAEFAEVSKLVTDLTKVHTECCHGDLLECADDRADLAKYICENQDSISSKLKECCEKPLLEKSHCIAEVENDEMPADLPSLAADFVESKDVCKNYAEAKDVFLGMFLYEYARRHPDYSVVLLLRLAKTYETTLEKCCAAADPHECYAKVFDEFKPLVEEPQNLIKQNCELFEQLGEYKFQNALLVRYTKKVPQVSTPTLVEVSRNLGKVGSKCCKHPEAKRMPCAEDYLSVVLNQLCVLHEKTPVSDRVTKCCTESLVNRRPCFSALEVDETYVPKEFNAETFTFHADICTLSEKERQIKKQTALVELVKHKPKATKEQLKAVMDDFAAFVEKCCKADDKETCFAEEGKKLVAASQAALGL
T2 sequence (chain, as listed by the source K1116C K1116C): as the sequence (chain, as listed by the source E1015C E1015C) above, with C252E, K353C counted along it
T1 sequence (chain, as listed by the source N1134C N1134C): as the sequence (chain, as listed by the source E1015C E1015C) above, with C252E, N371C counted along it
T3 sequence (chain, as listed by the source R768C R768C): as the sequence (chain, as listed by the source E1015C E1015C) above, with R5C, C252E counted along it
T6 sequence (chain, as listed by the source L984C L984C): as the sequence (chain, as listed by the source E1015C E1015C) above, with L221C, C252E counted along it
T5 sequence (chain, as listed by the source H817C H817C): as the sequence (chain, as listed by the source E1015C E1015C) above, with H54C, C252E counted along it

B1: Factor VIII SingleChain P1688C mutant (other)
chain: ATRRYYLGAVELSWDYMQSDLGELPVDARFPPRVPKSFPFNTSVVYKKTLFVEFTDHLFNIAKPRPPWMGLLGPTIQAEVYDTVVITLKNMASHPVSLHAVGVSYWKASEGAEYDDQTSQREKEDDKVFPGGSHTYVWQVLKENGPMASDPLCLTYSYLSHVDLVKDLNSGLIGALLVCREGSLAKEKTQTLHKFILLFAVFDEGKSWHSETKNSLMQDRDAASARAWPKMHTVNGYVNRSLPGLIGCHRKSVYWHVIGMGTTPEVHSIFLEGHTFLVRNHRQASLEISPITFLTAQTLLMDLGQFLLFCHISSHQHDGMEAYVKVDSCPEEPQLRMKNNEEAEDYDDDLTDSEMDVVRFDDDNSPSFIQIRSVAKKHPKTWVHYIAAEEEDWDYAPLVLAPDDRSYKSQYLNNGPQRIGRKYKKVRFMAYTDETFKTREAIQHESGILGPLLYGEVGDTLLIIFKNQASRPYNIYPHGITDVRPLYSRRLPKGVKHLKDFPILPGEIFKYKWTVTVEDGPTKSDPRCLTRYYSSFVNMERDLASGLIGPLLICYKESVDQRGNQIMSDKRNVILFSVFDENRSWYLTENIQRFLPNPAGVQLEDPEFQASNIMHSINGYVFDSLQLSVCLHEVAYWYILSIGAQTDFLSVFFSGYTFKHKMVYEDTLTLFPFSGETVFMSMENPGLWILGCHNSDFRNRGMTALLKVSSCDKNTGDYYEDSYEDISAYLLSKNNAIEPRSFSQNSRHRSTRQKQFNATTIPENTTLQSDQEEIDYDDTISVEMKKEDFDIYDEDENQSCRSFQKKTRHYFIAAVERLWDYGMSSSPHVLRNRAQSGSVPQFKKVVFQEFTDGSFTQPLYRGELNEHLGLLGPYIRAEVEDNIMVTFRNQASRPYSFYSSLISYEEDQRQGAEPRKNFVKPNETKTYFWKVQHHMAPTKDEFDCKAWAYFSDVDLEKDVHSGLIGPLLVCHTNTLNPAHGRQVTVQEFALFFTIFDETKSWYFTENMERNCRAPCNIQMEDPTFKENYRFHAINGYIMDTLPGLVMAQDQRIRWYLLSMGSNENIHSIHFSGHVFTVRKKEEYKMALYNLYPGVFETVEMLPSKAGIWRVECLIGEHLHAGMSTLFLVYSNKCQTPLGMASGHIRDFQITASGQYGQWAPKLARLHYSGSINAWSTKEPFSWIKVDLLAPMIIHGIKTQGARQKFSSLYISQFIIMYSLDGKKWQTYRGNSTGTLMVFFGNVDSSGIKHNIFNPPIIARYIRLHPTHYSIRSTLRMELMGCDLNSCSMPLGMESKAISDAQITASSYFTNMFATWSPSKARLHLQGRSNAWRPQVNNPKEWLQVDFQKTMKVTGVTTQGVKSLLTSMYVKEFLISSSQDGHQWTLFFQNGKVKVFQGNQDSFTPVVNSLDPPLLTRYLRIHPQSWVHQIALRMEVLGCEAQDLY
notes: Single-chain FVIII with partial B-domain deletion; also called FVIII-SC P1688C; Cys residue at FVIII aa position 1688
[1]
  ratio covalent FVIII/Total FVIII antigen: 6.11
[2]
  ratio covalent FVIII/Total FVIII antigen: 1.89
[3]
  ratio covalent FVIII/Total FVIII antigen: 2.13
[4]
  ratio covalent FVIII/Total FVIII antigen: 0.53
[5]
  ratio covalent FVIII/Total FVIII antigen: 0.29
[6]
  ratio covalent FVIII/Total FVIII antigen: 0.96
[7]
  ratio covalent FVIII/Total FVIII activity: 1.87
[8]
  ratio covalent FVIII/Total FVIII activity: 0.61
[9]
  ratio covalent FVIII/Total FVIII activity: 18.8
[10]
  ratio covalent FVIII/Total FVIII activity: 1.59
[11]
  ratio covalent FVIII/Total FVIII activity: 1.89
[12]
  ratio covalent FVIII/Total FVIII activity: 2.45
[13]
  covalent FVIII: 650 amU/ml
[14]
  covalent FVIII: 666 amU/ml
[15]
  covalent FVIII: 2060 amU/ml
[16]
  covalent FVIII: 1080 amU/ml
[17]
  covalent FVIII: 367 amU/ml
[18]
  covalent FVIII: 1900 amU/ml

From patent US20180092966A1 (CSL, published 2018)
